# Like-named read-outs stand apart in the source and are kept apart here.
# How the values were obtained:
# [1] = biological target: soluble FcγRIIIA 158V (human) (UniProt P08637); assay: SPR (BIAcore) steady-state analysis, ch4D5 antibody captured on immobilised ErbB2/Fc-aglycosyl chimera, soluble FcγRIIIA V158 (printed 3aV150) injected at 0.1-[…]
# [2] = biological target: soluble FcγRIIIA 158F (human) (UniProt P08637); assay: SPR (BIAcore) steady-state analysis, ch4D5 antibody captured on immobilised ErbB2/Fc-aglycosyl chimera, soluble FcγRIIIA F158 (printed 3aF150) injected at 0.2-[…]
# [3] = biological target: soluble monomeric FcγRIIIA (extracellular region joined to linker-AVITAG), allele not stated (human) (UniProt P08637); assay: SPR
# [4] = biological target: soluble dimeric FcγRIIB (extracellular domain fused to hinge-CH2-CH3 of human IgG2) (human) (UniProt P31994); assay: SPR
# [5] = biological target: soluble monomeric FcγRIIIA (extracellular region joined to linker-AVITAG), allele not stated (human) (UniProt P08637); assay: SPR; remark: listed apart in the source
# [6] = biological target: soluble dimeric FcγRIIB (extracellular domain fused to hinge-CH2-CH3 of human IgG2) (human) (UniProt P31994); assay: SPR; remark: listed apart in the source
# [7] = biological target: soluble dimeric FcγRIIB (extracellular domain fused to hinge-CH2-CH3 of human IgG2) (human) (UniProt P31994); assay: ELISA
# [8] = biological target: soluble monomeric FcγRIIIA (extracellular region joined to linker-AVITAG), allele not stated (human) (UniProt P08637); assay: ELISA
# Sequence of soluble monomeric FcγRIIIA (extracellular region joined to linker-AVITAG), allele not stated (human) (P08637 17-208): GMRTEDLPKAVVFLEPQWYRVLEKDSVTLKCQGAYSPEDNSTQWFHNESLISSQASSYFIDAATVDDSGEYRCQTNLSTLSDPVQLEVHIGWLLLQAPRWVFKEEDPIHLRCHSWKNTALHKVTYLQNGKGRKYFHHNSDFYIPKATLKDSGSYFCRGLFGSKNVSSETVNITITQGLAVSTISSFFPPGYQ
# Sequence of soluble dimeric FcγRIIB (extracellular domain fused to hinge-CH2-CH3 of human IgG2) (human) (P31994 43-217): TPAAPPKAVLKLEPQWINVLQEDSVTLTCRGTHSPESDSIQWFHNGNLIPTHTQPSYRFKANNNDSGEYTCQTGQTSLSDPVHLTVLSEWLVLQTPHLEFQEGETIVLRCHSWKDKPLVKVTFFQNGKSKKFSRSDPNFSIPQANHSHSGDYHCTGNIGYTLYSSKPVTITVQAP
# Sequence of soluble FcγRIIIA 158F (human) (P08637 17-208): as the sequence (P08637 17-208) above
Substance,Kd [1] [µM],Kd [2] [µM],Kd [3] [µM],Kd [4] [µM],Kd [5] [µM],Kd [6] [µM],ELISA OD [7] [OD],ELISA IIIA binding [8] [fold],ELISA OD [8] [OD]
ch4D5 wild type (IgG1) (antibody),36,1.54,–,–,–,–,–,–,–
ch4-4-20 wild type (antibody),–,–,0.319,0.094,0.198,0.0614,0.4,1,0.5
